# ± gives the uncertainty stated by the source.
# Test: amyloid nucleation score (Sup35N fusion, yeast selection) (log enrichment); library NNK3; higher = more nucleation; inactive = no reads after selection
# In short: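 Yeast lacking psi expressed peptides of 20 random codons fused to Sup35N, received 100 μM copper sulfate for 24 hours, and were then grown for 7 days at 30°C on medium lacking adenine and uracil. Illumina sequencing of input and output plasmid inserts provided the reads. Nucleation scores are DiMSum log enrichments of output over input, centred on the mode of non-aggregating sequences. Any sequence with under 100 input reads was excluded.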
row,Substance,amyloid nucleation score
1,GTQRVAIEDSGVIR,inactive
2,YQCTKMRLVSFRTVVLVLRG,0.04 ± 0.8
3,HMLHVWYFLGRQYANTFCYM,inactive
4,FEYLSMYELGISVMSTAH,inactive
5,SALLNRLSVSLYWMYGMSFM,inactive
6,ALFTESF,inactive
7,LFMTRSFILYFTYPFRYGVV,inactive
8,VFVPTKYHYMYVLGQWDIFV,inactive
9,STGFGE,inactive
10,SSLIGRVDRIMYVSARERTI,inactive
11,EGFFYCCHFFRLYYNVVVLL,2.02 ± 0.064
12,EYSVRADPGREMNGEISAWV,inactive
13,LVLSWWYMMFFRFDGV,inactive
14,GYKFWCSVFLVWLILHVRQS,inactive
15,YTGYWTGLYYVFMEINGWGS,inactive
16,NWEFDSNAILDSMLVMNRLT,inactive
17,IRRSLAR,inactive
18,TLCST,inactive
19,YVDLQPITREADDLRALTFM,inactive
20,WNIFSYNNSLVWNPEGNESG,0.836 ± 0.27
21,NHVTVYVI,0.555 ± 0.29
22,RRVFHWYKYCV,inactive
23,NENTALSTWAPGYLINSYRA,inactive
24,SKLFFRNTLVSIISM,inactive
25,SSRTTIQ,inactive
26,ARVKWMVGEIWCQSDDKPLE,inactive
27,FYVNCFSL,1.01 ± 0.11

row,Substance,amyloid nucleation score
1,YRKNLRHSLCRNWLYMDCHV,inactive
2,QNGCRLMTCC,inactive
3,LKLFWSLET,inactive
4,FDNKQGSFLKVLTFNFARVA,inactive
5,QALPSRLGSAGFDYWPPAMS,-0.039 ± 0.53
6,LYTNGIFYWQMGYLKVWQGI,inactive
7,IKRGRTVQKVFCMWVVSYPR,inactive
8,WKVMLRLALRMQCTHLAVCW,inactive
9,SLWHMRVWMLCCKGPKTWRF,inactive
10,LYNGELNLMVRSNAEFMGSG,inactive
11,VNFLSGWEPVIVKYHRSA,inactive
12,LMQDLENVS,inactive
13,YCGTY,inactive
14,VTSIPIPR,inactive
15,CSRWMWPENYRFSSEVPWYI,inactive
16,VYDMDNVRYNHRGNTERFSG,0.109 ± 0.28
17,AYIIN,-0.363 ± 0.82
18,CLNNVLLASPPNCAGNL,inactive
19,RMLRNF,-0.466 ± 1.9
20,NWSLSKSRHIPLGTCRGISY,-0.201 ± 0.84
21,NKVVMGNLWGPPVFDRCDKG,inactive
22,MNRDTYSMWSVKDKMTFI,-0.124 ± 0.75
23,LFAAYCFVYDIQFTRVPGAW,inactive
24,GIFVSMTLFILKILFARYVR,inactive
25,VESYPVGLY,1.56 ± 0.068
26,YFFWDLEILMHPFFQTVRNK,inactive
27,GPWLLRASNAHTWTRYGLVK,inactive

row,Substance,amyloid nucleation score
1,NRFVIIFSCLCFCPQSDMEL,2.37 ± 0.083
2,IILVSYVREMKHSSSSFVLS,2.04 ± 0.098
3,SLSYFLSFS,1.14 ± 0.085
4,STSNFYLWGKPNVLAGMR,inactive
5,VLGCVGLCYHRYVNALGGAE,inactive
6,VPKKEKWRFDIVL,inactive
7,IQKLSFYTVCFMYDWLLTFK,inactive
8,EGKIHNSRLGYFQRRLIVS,inactive
9,ASNDDVG,inactive
10,FVVGIFYSIQYIECSRVSSY,-0.106 ± 0.55
11,VFGFMCNYSFVATSRLCVIG,inactive
12,YVKIDSRFHGVSHFRFHTAY,inactive
13,VERRMTKVWTGARSPGRVFW,inactive
14,KPWIFMESRDM,inactive
15,FRVLYDCGTGYAVCYAMEVK,inactive
16,RSVVLIPDLFGNL,inactive
17,KDQSRSARSST,inactive
18,QKMGRGARKCMQLYVMGKDL,inactive
19,YSNSLRRTSPQEHS,inactive
20,NLVGTMATRYCRAHQEAREW,inactive
21,LFGTRIYGLFLCSLNLCRRV,inactive
22,RLWTFCFA,inactive
23,YKRLVSLNVEWALRK,inactive
24,GVNIRCLRDDDSRLLKERSC,inactive
25,FTHNHK,inactive
26,GYNVKGNP,inactive
